These are literature values, as cited in paper PMC3433420.

Like-named read-outs stand apart in the source and are kept apart here.

Targets include CRK (Homo sapiens) (UniProt P46108); PIK3R1-C (Homo sapiens) (UniProt P27986); SHC3 (Homo sapiens) (UniProt Q92529); PIK3R3-NC (Homo sapiens) (UniProt Q92569); SH3BP2 (Homo sapiens) (UniProt P78314); NCK1 (Homo sapiens) (UniProt P16333); RASA1-NC (Homo sapiens) (UniProt P20936); PIK3R2-N (Homo sapiens) (UniProt O00459); RASA1-N (Homo sapiens) (UniProt P20936); SLA2 (Homo sapiens) (UniProt Q9H6Q3); VAV3 (Homo sapiens) (UniProt Q9UKW4); TENC1 (Homo sapiens) (UniProt Q63HR2); ITK (Homo sapiens) (UniProt Q08881); GRB7 (Homo sapiens) (UniProt Q14451); SH2B2 (Homo sapiens) (UniProt O14492); ABL2 (Homo sapiens) (UniProt P42684); SYK-N (Homo sapiens) (UniProt P43405); SOCS1 (Homo sapiens) (UniProt O15524); SH2B3 (Homo sapiens) (UniProt Q9UQQ2).

Common to all, as to settings: cited from earlier work
Data set [1] addresses PIK3R1-N (Homo sapiens) (UniProt P27986).
Data set [2] concerns the target PIK3R1-NC (Homo sapiens) (UniProt P27986).
Data set [3] addresses PLCG1-NC (Homo sapiens) (UniProt P19174).
Data set [4] deals with PIK3R1-N (Homo sapiens) (UniProt P27986). This is another data set of the same source.
PIK3R1-N (Homo sapiens), sequence (P27986 328-723): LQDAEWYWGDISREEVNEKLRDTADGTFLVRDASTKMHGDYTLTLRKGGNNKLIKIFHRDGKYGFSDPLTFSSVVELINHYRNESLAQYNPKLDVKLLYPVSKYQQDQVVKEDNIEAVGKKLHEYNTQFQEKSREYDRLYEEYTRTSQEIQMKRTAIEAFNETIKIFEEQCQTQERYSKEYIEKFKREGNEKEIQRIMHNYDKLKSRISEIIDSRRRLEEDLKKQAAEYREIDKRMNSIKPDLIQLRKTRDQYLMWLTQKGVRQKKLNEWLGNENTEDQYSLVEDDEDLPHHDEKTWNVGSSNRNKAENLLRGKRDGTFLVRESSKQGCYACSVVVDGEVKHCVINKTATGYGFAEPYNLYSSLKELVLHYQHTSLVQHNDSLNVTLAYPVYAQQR
Data set [5] addresses BLK (Homo sapiens) (UniProt P51451).
Data set [6] deals with YES1 (Homo sapiens) (UniProt P07947).
YES1 (Homo sapiens), sequence (P07947 153-260): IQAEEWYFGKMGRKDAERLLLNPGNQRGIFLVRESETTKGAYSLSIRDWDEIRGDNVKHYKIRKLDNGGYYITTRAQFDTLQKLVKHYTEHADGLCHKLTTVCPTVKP
Data set [7] addresses PLCG1-NC (Homo sapiens) (UniProt P19174). The source holds these as a separate data set.
The target in data set [8] is PIK3R1-NC (Homo sapiens) (UniProt P27986). The source holds these as a separate data set.
PIK3R1-NC (Homo sapiens), sequence (P27986 328-723): as the sequence (P27986 328-723) above
The target in data set [9] is BLK (Homo sapiens) (UniProt P51451). The source holds these as a separate data set.
BLK (Homo sapiens), sequence (P51451 119-225): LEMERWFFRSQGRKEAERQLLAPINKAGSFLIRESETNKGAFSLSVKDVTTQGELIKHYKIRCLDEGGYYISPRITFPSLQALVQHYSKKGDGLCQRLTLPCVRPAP
Data set [10] concerns the target YES1 (Homo sapiens) (UniProt P07947). The source holds these as a separate data set.
Data set [11] has as its target BLK (Homo sapiens) (UniProt P51451). This is another data set of the same source.

PLCG1-NC (Homo sapiens), sequence (P19174 545-761): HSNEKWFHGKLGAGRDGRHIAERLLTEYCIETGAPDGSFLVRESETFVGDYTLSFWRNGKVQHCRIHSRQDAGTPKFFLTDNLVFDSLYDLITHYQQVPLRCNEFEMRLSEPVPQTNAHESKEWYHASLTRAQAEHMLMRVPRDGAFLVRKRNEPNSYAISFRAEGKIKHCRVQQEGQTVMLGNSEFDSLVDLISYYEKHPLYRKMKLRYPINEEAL
ABL2 (Homo sapiens), sequence (P42684 168-268): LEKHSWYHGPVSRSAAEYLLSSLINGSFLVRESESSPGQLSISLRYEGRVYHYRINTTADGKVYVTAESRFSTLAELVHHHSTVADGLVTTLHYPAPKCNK
SHC3 (Homo sapiens), sequence (Q92529 494-594): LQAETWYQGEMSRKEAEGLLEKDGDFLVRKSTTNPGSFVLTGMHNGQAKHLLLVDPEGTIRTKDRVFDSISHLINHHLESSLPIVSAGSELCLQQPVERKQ
SLA2 (Homo sapiens), sequence (Q9H6Q3 89-196): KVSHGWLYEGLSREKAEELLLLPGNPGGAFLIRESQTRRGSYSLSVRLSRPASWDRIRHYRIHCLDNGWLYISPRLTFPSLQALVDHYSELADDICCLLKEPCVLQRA
SOCS1 (Homo sapiens), sequence (O15524 74-179): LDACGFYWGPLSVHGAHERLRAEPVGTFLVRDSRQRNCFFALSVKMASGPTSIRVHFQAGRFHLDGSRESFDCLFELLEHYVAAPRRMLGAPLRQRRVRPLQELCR
GRB7 (Homo sapiens), sequence (Q14451 426-532): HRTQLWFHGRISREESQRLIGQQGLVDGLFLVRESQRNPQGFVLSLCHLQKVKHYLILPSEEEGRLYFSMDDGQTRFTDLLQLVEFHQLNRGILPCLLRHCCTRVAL
SH2B3 (Homo sapiens), sequence (Q9UQQ2 359-467): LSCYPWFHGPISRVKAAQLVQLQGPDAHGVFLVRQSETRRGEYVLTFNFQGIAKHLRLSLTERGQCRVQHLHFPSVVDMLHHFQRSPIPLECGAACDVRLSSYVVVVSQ
CRK (Homo sapiens), sequence (P46108 8-123): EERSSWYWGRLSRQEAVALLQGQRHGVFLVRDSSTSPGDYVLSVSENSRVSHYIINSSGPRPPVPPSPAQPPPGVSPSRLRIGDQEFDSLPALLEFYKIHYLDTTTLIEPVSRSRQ
VAV3 (Homo sapiens), sequence (Q9UKW4 667-771): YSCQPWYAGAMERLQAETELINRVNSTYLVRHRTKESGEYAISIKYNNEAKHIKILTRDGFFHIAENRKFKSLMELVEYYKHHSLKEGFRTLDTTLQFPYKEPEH
RASA1-NC (Homo sapiens), sequence (P20936 176-446): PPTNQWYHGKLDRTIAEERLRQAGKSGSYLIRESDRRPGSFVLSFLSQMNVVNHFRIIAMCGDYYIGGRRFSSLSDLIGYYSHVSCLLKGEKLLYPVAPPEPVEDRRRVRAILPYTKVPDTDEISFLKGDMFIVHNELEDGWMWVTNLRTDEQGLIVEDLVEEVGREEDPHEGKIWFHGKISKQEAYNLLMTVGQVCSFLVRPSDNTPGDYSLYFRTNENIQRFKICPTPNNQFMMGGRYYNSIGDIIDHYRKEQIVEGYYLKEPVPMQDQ
RASA1-N (Homo sapiens), sequence (P20936 176-446): as above
SH2B2 (Homo sapiens), sequence (O14492 412-520): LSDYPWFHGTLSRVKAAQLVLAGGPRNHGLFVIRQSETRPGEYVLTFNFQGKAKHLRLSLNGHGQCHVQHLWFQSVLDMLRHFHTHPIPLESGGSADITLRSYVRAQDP
SH3BP2 (Homo sapiens), sequence (P78314 452-560): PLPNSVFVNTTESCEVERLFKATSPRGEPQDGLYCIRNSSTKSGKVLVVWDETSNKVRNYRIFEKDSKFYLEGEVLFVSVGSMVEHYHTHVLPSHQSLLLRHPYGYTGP
ITK (Homo sapiens), sequence (Q08881 234-343): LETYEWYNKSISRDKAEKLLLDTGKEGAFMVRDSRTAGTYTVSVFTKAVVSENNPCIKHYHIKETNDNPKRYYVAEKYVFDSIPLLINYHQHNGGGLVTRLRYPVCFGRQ
TENC1 (Homo sapiens), sequence (Q63HR2 1135-1252): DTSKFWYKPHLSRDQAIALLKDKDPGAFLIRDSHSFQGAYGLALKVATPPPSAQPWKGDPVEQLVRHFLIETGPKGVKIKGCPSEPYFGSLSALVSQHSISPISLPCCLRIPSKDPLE
PIK3R1-C (Homo sapiens), sequence (P27986 328-723): as the sequence (P27986 328-723) above
PIK3R2-N (Homo sapiens), sequence (O00459 325-721): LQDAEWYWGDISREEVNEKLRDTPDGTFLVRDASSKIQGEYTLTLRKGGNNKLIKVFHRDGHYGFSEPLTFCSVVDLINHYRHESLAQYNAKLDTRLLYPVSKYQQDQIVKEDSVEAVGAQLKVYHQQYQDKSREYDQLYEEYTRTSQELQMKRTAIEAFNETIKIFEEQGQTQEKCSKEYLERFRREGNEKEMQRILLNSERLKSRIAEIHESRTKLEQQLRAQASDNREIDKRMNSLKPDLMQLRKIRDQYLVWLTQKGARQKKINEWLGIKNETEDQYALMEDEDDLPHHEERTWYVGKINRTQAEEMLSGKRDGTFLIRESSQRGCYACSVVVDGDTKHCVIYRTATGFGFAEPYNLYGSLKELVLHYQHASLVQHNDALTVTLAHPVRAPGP

On to …pYEEMRAFQ, for which the apparent Kd (screen) with CRK (Homo sapiens) is 1500 nM; with PIK3R1-C (Homo sapiens) it was 64 nM; in the data set with SHC3 (Homo sapiens), 123 nM; in the data set with PIK3R3-NC (Homo sapiens), 10 nM; in the data set with SH3BP2 (Homo sapiens) it was 2000 nM.

Take …pYLIPQQGFd: the apparent Kd (screen) with PIK3R1-N (Homo sapiens) [1] was 899 nM; with NCK1 (Homo sapiens), 1000 nM; with RASA1-NC (Homo sapiens), 1420 nM; with PIK3R1-NC (Homo sapiens) [2], 175 nM; in the data set with PIK3R2-N (Homo sapiens) it was 424 nM; in the data set with PLCG1-NC (Homo sapiens) [3] it was 794 nM. Besides, the apparent Kd (screen) with PIK3R1-N (Homo sapiens) [4] is 646 nM.

As to …pYLVPQQGF, the apparent Kd (screen) with BLK (Homo sapiens) [5] is 597 nM; with RASA1-N (Homo sapiens) it was 2000 nM; with SLA2 (Homo sapiens), 2000 nM; with YES1 (Homo sapiens) [6] it was 1170 nM; with VAV3 (Homo sapiens) it was 2000 nM; with TENC1 (Homo sapiens) it was 2000 nM. Also, the apparent Kd (screen) in the data set with PLCG1-NC (Homo sapiens) [7], with ITK (Homo sapiens), with GRB7 (Homo sapiens) and in the data set with SH2B2 (Homo sapiens) was 2000 nM throughout.

With …pYWDQDPPE, the apparent Kd (screen) with ABL2 (Homo sapiens) was 192 nM; with PIK3R1-NC (Homo sapiens) [8] it was 1840 nM; in the data set with SYK-N (Homo sapiens), 203 nM; in the data set with BLK (Homo sapiens) [9], 2000 nM; with SOCS1 (Homo sapiens) it was 1920 nM; in the data set with SH2B3 (Homo sapiens), 2000 nM. The apparent Kd (screen) was 2000 nM in the data set with YES1 (Homo sapiens) [10] and 52 nM with BLK (Homo sapiens) [11].
